Reference: patent US20140287029A1

Target: HLA-A2 molecules on T2 cells (human)
Test: T2 cell-binding assay, flow cytometry of HLA-A2 on T2 cells, peptide 25 µg/mL; negative control
Details: remark: other sources report otherwise

- T2 Binding (mean fluorescence intensity): 88 MFI
B1: CAP-7 peptide (peptide)
peptide: HLFGYSWYK
